Columns and labels:
CD3 on T-cells = CD3 on T-cells (UniProt P07766 23-207); experiment: cell-based or functional assay
[1] = molecular target: T1, CD3 (as used for the BIACORE kinetics of Table 11) (UniProt P07766 23-126); experiment: SPR (BIACORE)
T1 construct: CD3 mAb 1 is described as an anti-human CD3 antibody
Experimental: Variants of the CD123×CD3 DART-A-type diabody (designated DART-A-WT; amino acid sequences provided above) were generated comprising the VH and VL Domains of the identified scFvs. Thus, a panel of DART-A-type diabodies, designated DART-A-M1-DART-A-M26, comprising vCD3-Binding Domains (such vCD3-Binding Domains being respectively designated “CD3 mAb 1 M1-CD3 mAb 1 M26”) were generated. The CD3-binding kinetics of DART-A-M1-DART-A-M26 were measured by BIACORE® and compared to DART-A-WT. Table 11 summarizes the CD3-binding kinetics of DART-A-WT and the DART-A-type diabodies comprising the vCD3-Binding Domains of CD3 mAb 1 M1-CD3 mAb 1 M26, ranked by kₐ (R denotes kₐ, kd, or kD ratio of variant DART-A-type diabody (comprising a vCD3-Binding Domain) to DART-A-WT (comprising the rCD3-Binding Domain of CD3 mAb 1)).

CD3 on T-cells, sequence (P07766 23-207): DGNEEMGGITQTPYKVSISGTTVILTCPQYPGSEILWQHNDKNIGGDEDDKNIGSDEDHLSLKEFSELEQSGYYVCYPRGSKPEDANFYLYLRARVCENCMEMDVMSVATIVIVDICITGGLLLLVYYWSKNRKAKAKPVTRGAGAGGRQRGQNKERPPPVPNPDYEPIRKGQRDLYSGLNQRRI
T1 sequence (P07766 23-126): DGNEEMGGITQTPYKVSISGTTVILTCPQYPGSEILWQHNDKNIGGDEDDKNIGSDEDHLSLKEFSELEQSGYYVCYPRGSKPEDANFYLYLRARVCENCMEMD

B1: DART-A-M23 (bispecific antibody)
chain 1: DFVMTQSPDSLAVSLGERVTMSCKSSQSLLNSGNQKNYLTWYQQKPGQPPKLLIYWASTRESGVPDRFSGSGSGTDFTLTISSLQAEDVAVYYCQNDYSYPYTFGQGTKLEIKGGGSGGGGEVQLVESGGGLVQPGGSLRLSCAASGFTFSTYAMNWVRQAPGKGLEWVGRIRSKYNNYATYYADSVKDRFTISRDDSKNSLYLQMNSLKTEDTAVYYCVRHGNFGNSYVSWFAYWGQGTLVTVSSGGCGGGKVAALKEKVAALKEKVAALKEKVAALKE
chain 2: QAVVTQEPSLTVSPGGTVTLTCRSSTGAVTTSNYANWVQQKPGQAPRGLIGGTNKRAPWTPARFSGSLLGGKAALTITGAQAEDEADYYCAEWYSNLWVFGGGTKLTVLGGGGSGGGGEVQLVQSGAELKKPGASVKVSCKASGYTFTDYYMKWVRQAPGQGLEWIGDIIPSNGATFYNQKFKGRVTITVDKSTSTAYMELSSLRSEDTAVYYCARSHLLRASWFAYWGQGTLVTVSSGGCGGGEVAALEKEVAALEKEVAALEKEVAALEK
notes: also called CD123 x CD3 DART-A-type diabody with CD3 mAb 1 M23
EC50 of cytolysis at 18 hours (CTL assay, Pan-T-cells and MOLM-13, E:T = 5:1) (CD3 on T-cells): 0.421 ng/mL | EC50 of cytolysis at 42 hours (CTL assay, Pan-T-cells and MOLM-13, E:T = 5:1) (CD3 on T-cells): 0.061 ng/mL | R: ratio of 18 hour EC50 to DART-A-WT (CTL assay, Pan-T-cells and MOLM-13, E:T = 5:1) (CD3 on T-cells): 5.3 ratio | R: ratio of 42 hour EC50 to DART-A-WT (CTL assay, Pan-T-cells and MOLM-13, E:T = 5:1) (CD3 on T-cells): 21.6 ratio | max % CytoTox at 18 hours (CTL assay, Pan-T-cells and MOLM-13, E:T = 5:1) (CD3 on T-cells): 49.3% | max % CytoTox at 42 hours (CTL assay, Pan-T-cells and MOLM-13, E:T = 5:1) (CD3 on T-cells): 31.4% | Kd [1]: 26.9 nM | R (KD ratio to DART-A-WT) [1]: 3.3 | R (ka ratio to DART-A-WT) [1]: 0.9 | R (kd ratio to DART-A-WT) [1]: 3 | koff [1]: 0.0124 s⁻¹ | kon [1]: 459000 M⁻¹ s⁻¹

B2: DART-A-M26 (bispecific antibody)
chain 1: DFVMTQSPDSLAVSLGERVTMSCKSSQSLLNSGNQKNYLTWYQQKPGQPPKLLIYWASTRESGVPDRFSGSGSGTDFTLTISSLQAEDVAVYYCQNDYSYPYTFGQGTKLEIKGGGSGGGGEVQLVESGGGLVQPGGSLRLSCAASGFTFSTYAMNWVRQAPGKGLEWVGRIRSKYNNYATYYADSVKDRFTISRDDSKNSLYLQMNSLKTEDTAVYYCVRHGNFGNSYVSWFAYWGQGTLVTVSSGGCGGGKVAALKEKVAALKEKVAALKEKVAALKE
chain 2: QAVVTQEPSLTVSPGGTVTLTCRSSTGAVTTSNYANWVQQKPGQAPRGLIGGTNGRAPWTPARFSGSLLGGKAALTITGAQAEDEADYYCALWYSNLWVFGGGTKLTVLGGGGSGGGGEVQLVQSGAELKKPGASVKVSCKASGYTFTDYYMKWVRQAPGQGLEWIGDIIPSNGATFYNQKFKGRVTITVDKSTSTAYMELSSLRSEDTAVYYCARSHLLRASWFAYWGQGTLVTVSSGGCGGGEVAALEKEVAALEKEVAALEKEVAALEK
notes: also called CD123 x CD3 DART-A-type diabody with CD3 mAb 1 M26
EC50 of cytolysis at 18 hours (CTL assay, Pan-T-cells and MOLM-13, E:T = 5:1) (CD3 on T-cells): 0.444 ng/mL | EC50 of cytolysis at 42 hours (CTL assay, Pan-T-cells and MOLM-13, E:T = 5:1) (CD3 on T-cells): 0.078 ng/mL | R: ratio of 18 hour EC50 to DART-A-WT (CTL assay, Pan-T-cells and MOLM-13, E:T = 5:1) (CD3 on T-cells): 5.6 ratio | R: ratio of 42 hour EC50 to DART-A-WT (CTL assay, Pan-T-cells and MOLM-13, E:T = 5:1) (CD3 on T-cells): 27.9 ratio | max % CytoTox at 18 hours (CTL assay, Pan-T-cells and MOLM-13, E:T = 5:1) (CD3 on T-cells): 44.2% | max % CytoTox at 42 hours (CTL assay, Pan-T-cells and MOLM-13, E:T = 5:1) (CD3 on T-cells): 28.2% | Kd [1]: 54.4 nM | R (KD ratio to DART-A-WT) [1]: 6.7 | R (ka ratio to DART-A-WT) [1]: 0.6 | R (kd ratio to DART-A-WT) [1]: 4.3 | koff [1]: 0.0174 s⁻¹ | kon [1]: 319000 M⁻¹ s⁻¹

B3: DART-A-M25 (bispecific antibody)
chain 1: DFVMTQSPDSLAVSLGERVTMSCKSSQSLLNSGNQKNYLTWYQQKPGQPPKLLIYWASTRESGVPDRFSGSGSGTDFTLTISSLQAEDVAVYYCQNDYSYPYTFGQGTKLEIKGGGSGGGGEVQLVESGGGLVQPGGSLRLSCAASGFTFSTYAMNWVRQAPGKGLEWVGRIRSKYNNYATYYADSVKDRFTISRDDSKNSLYLQMNSLKTEDTAVYYCVRHGNFGNSYVSWFAYWGQGTLVTVSSGGCGGGKVAALKEKVAALKEKVAALKEKVAALKE
chain 2: QAVVTQEPSLTVSPGGTVTLTCRSSTGAVTTSNYANWVQQKPGQAPRGLIGDTNKRAPWTPARFSGSLLGGKAALTITGAQAEDEADYYCALWYSNLWVFGGGTKLTVLGGGGSGGGGEVQLVQSGAELKKPGASVKVSCKASGYTFTDYYMKWVRQAPGQGLEWIGDIIPSNGATFYNQKFKGRVTITVDKSTSTAYMELSSLRSEDTAVYYCARSHLLRASWFAYWGQGTLVTVSSGGCGGGEVAALEKEVAALEKEVAALEKEVAALEK
notes: also called CD123 x CD3 DART-A-type diabody with CD3 mAb 1 M25
EC50 of cytolysis at 18 hours (CTL assay, Pan-T-cells and MOLM-13, E:T = 5:1) (CD3 on T-cells): 0.585 ng/mL | EC50 of cytolysis at 42 hours (CTL assay, Pan-T-cells and MOLM-13, E:T = 5:1) (CD3 on T-cells): 0.1 ng/mL | R: ratio of 18 hour EC50 to DART-A-WT (CTL assay, Pan-T-cells and MOLM-13, E:T = 5:1) (CD3 on T-cells): 7.4 ratio | R: ratio of 42 hour EC50 to DART-A-WT (CTL assay, Pan-T-cells and MOLM-13, E:T = 5:1) (CD3 on T-cells): 35.7 ratio | max % CytoTox at 18 hours (CTL assay, Pan-T-cells and MOLM-13, E:T = 5:1) (CD3 on T-cells): 46.6% | max % CytoTox at 42 hours (CTL assay, Pan-T-cells and MOLM-13, E:T = 5:1) (CD3 on T-cells): 30.4% | Kd [1]: 125 nM | R (KD ratio to DART-A-WT) [1]: 15 | R (ka ratio to DART-A-WT) [1]: 0.3 | R (kd ratio to DART-A-WT) [1]: 4.7 | koff [1]: 0.0192 s⁻¹ | kon [1]: 154000 M⁻¹ s⁻¹

B4: DART-A-WT (bispecific antibody)
chain 1: DFVMTQSPDSLAVSLGERVTMSCKSSQSLLNSGNQKNYLTWYQQKPGQPPKLLIYWASTRESGVPDRFSGSGSGTDFTLTISSLQAEDVAVYYCQNDYSYPYTFGQGTKLEIKGGGSGGGGEVQLVESGGGLVQPGGSLRLSCAASGFTFSTYAMNWVRQAPGKGLEWVGRIRSKYNNYATYYADSVKDRFTISRDDSKNSLYLQMNSLKTEDTAVYYCVRHGNFGNSYVSWFAYWGQGTLVTVSSGGCGGGKVAALKEKVAALKEKVAALKEKVAALKE
chain 2: QAVVTQEPSLTVSPGGTVTLTCRSSTGAVTTSNYANWVQQKPGQAPRGLIGGTNKRAPWTPARFSGSLLGGKAALTITGAQAEDEADYYCALWYSNLWVFGGGTKLTVLGGGGSGGGGEVQLVQSGAELKKPGASVKVSCKASGYTFTDYYMKWVRQAPGQGLEWIGDIIPSNGATFYNQKFKGRVTITVDKSTSTAYMELSSLRSEDTAVYYCARSHLLRASWFAYWGQGTLVTVSSGGCGGGEVAALEKEVAALEKEVAALEKEVAALEK
notes: Two-chain diabody without Fc; Kabat position 65 of the CD3 VH is D; also called CD3 Mab-1; Wild-Type
EC50 of cytolysis at 18 hours (CTL assay, Pan-T-cells and MOLM-13, E:T = 5:1) (CD3 on T-cells): 0.079 ng/mL | EC50 of cytolysis at 42 hours (CTL assay, Pan-T-cells and MOLM-13, E:T = 5:1) (CD3 on T-cells): 0.003 ng/mL | R: ratio of 18 hour EC50 to DART-A-WT (CTL assay, Pan-T-cells and MOLM-13, E:T = 5:1) (CD3 on T-cells): 1 ratio | R: ratio of 42 hour EC50 to DART-A-WT (CTL assay, Pan-T-cells and MOLM-13, E:T = 5:1) (CD3 on T-cells): 1 ratio | max % CytoTox at 18 hours (CTL assay, Pan-T-cells and MOLM-13, E:T = 5:1) (CD3 on T-cells): 39% | max % CytoTox at 42 hours (CTL assay, Pan-T-cells and MOLM-13, E:T = 5:1) (CD3 on T-cells): 29.1% | Kd [1]: 8.17 nM | R (KD ratio to DART-A-WT) [1]: 1 | R (ka ratio to DART-A-WT) [1]: 1 | R (kd ratio to DART-A-WT) [1]: 1 | koff [1]: 0.00409 s⁻¹ | kon [1]: 500000 M⁻¹ s⁻¹

B5: DART-A-M24 (bispecific antibody)
chain 1: DFVMTQSPDSLAVSLGERVTMSCKSSQSLLNSGNQKNYLTWYQQKPGQPPKLLIYWASTRESGVPDRFSGSGSGTDFTLTISSLQAEDVAVYYCQNDYSYPYTFGQGTKLEIKGGGSGGGGEVQLVESGGGLVQPGGSLRLSCAASGFTFSTYAMNWVRQAPGKGLEWVGRIRSKYNNYATYYADSVKDRFTISRDDSKNSLYLQMNSLKTEDTAVYYCVRHGNFGNSYVSWFAYWGQGTLVTVSSGGCGGGKVAALKEKVAALKEKVAALKEKVAALKE
chain 2: QAVVTQEPSLTVSPGGTVTLTCRSSTGAVTTSNYANWVQQKPGQAPRGLIGGTNKRAPWTPARFSGSLLGGKAALTITGAQAEDEADYYCAQWYSNLWVFGGGTKLTVLGGGGSGGGGEVQLVQSGAELKKPGASVKVSCKASGYTFTDYYMKWVRQAPGQGLEWIGDIIPSNGATFYNQKFKGRVTITVDKSTSTAYMELSSLRSEDTAVYYCARSHLLRASWFAYWGQGTLVTVSSGGCGGGEVAALEKEVAALEKEVAALEKEVAALEK
notes: also called CD123 x CD3 DART-A-type diabody with CD3 mAb 1 M24
EC50 of cytolysis at 18 hours (CTL assay, Pan-T-cells and MOLM-13, E:T = 5:1) (CD3 on T-cells): 0.34 ng/mL | EC50 of cytolysis at 42 hours (CTL assay, Pan-T-cells and MOLM-13, E:T = 5:1) (CD3 on T-cells): 0.031 ng/mL | R: ratio of 18 hour EC50 to DART-A-WT (CTL assay, Pan-T-cells and MOLM-13, E:T = 5:1) (CD3 on T-cells): 4.3 ratio | R: ratio of 42 hour EC50 to DART-A-WT (CTL assay, Pan-T-cells and MOLM-13, E:T = 5:1) (CD3 on T-cells): 11.1 ratio | max % CytoTox at 18 hours (CTL assay, Pan-T-cells and MOLM-13, E:T = 5:1) (CD3 on T-cells): 49.4% | max % CytoTox at 42 hours (CTL assay, Pan-T-cells and MOLM-13, E:T = 5:1) (CD3 on T-cells): 31.1% | Kd [1]: 14.5 nM | R (KD ratio to DART-A-WT) [1]: 1.8 | R (ka ratio to DART-A-WT) [1]: 1.2 | R (kd ratio to DART-A-WT) [1]: 2.1 | koff [1]: 0.00861 s⁻¹ | kon [1]: 594000 M⁻¹ s⁻¹
